{"source": "patent US12459997B2", "about": "“Compounds and methods targeting interleukin-19” (Eli Lilly and Company, priority 2018, dated 2025)", "molecules": {"B1": {"name": "M_2: murine-derived IL-19 antibody; LC SEQ ID NO: 10, HC SEQ ID NO: 14 (antibody)", "heavy": "LVQLQQSDAELVKPGASLKISCKVSGYTFTDHALHWMKQRPEQGLEWIGYIYPRDGSTKYNEKFKGKATLTADRSSSTAYMELNSLTSEDSAVYFCARGWDFAMDYWGQGTSVTVSSAKTTPPSVYPLAPGSAAQTNSMVTLGCLVKGYFPEPVTVTWNSGSLSSGVHTFPAVLQSDLYTLSSSVTVPSSTWPSETVTCNVAHPASSTKVDKKIVPRDCGCKPCICTVPEVSSVFIFPPKPKDVLTITLTPKVTCVVVDISKDDPEVQFSWFVDDVEVHTAQTQPREEQFNSTFRSVSELPIMHQDWLNGKEFKCRVNSAAFPAPIEKTISKTKGRPKAPQVYTIPPPKEQMAKDKVSLTCMITDFFPEDITVEWQWNGQPAENYKNTQPIMDTDGSYFVYSKLNVQKSNWEAGNTFTCSVLHEGLHNHHTEKSLSHSPGK", "light": "DIVLTQSPESLAVSLGQRATISCRASESVDNYGISFIHWYQQKPGQPPKLLIYRASNLKSGIPARFSGRGSRTDFTLTINPVETDDVATYYCQQINKDPLTFGAGTKLELKRADAAPTVSIFPPSSEQLTSGGASVVCFLNNFYPKDINVKWKIDGSERQNGVLNSWTDQDSKDSTYSMSSTLTLTKDEYERHNSYTCEATHKTSTSPIVKSFNRNEC"}, "B2": {"name": "mirikizumab (antibody, chains of the INN, looked up, V domains shown)", "VH": "QVQLVQSGAEVKKPGSSVKVSCKASGYKFTRYVMHWVRQAPGQGLEWMGYINPYNDGTNYNEKFKGRVTITADKSTSTAYMELSSLRSEDTAVYYCARNWDTGLWGQGTTVTVSS", "VL": "DIQMTQSPSSLSASVGDRVTITCKASDHILKFLTWYQQKPGKAPKLLIYGATSLETGVPSRFSGSGSGTDFTLTISSLQPEDFATYYCQMYWSTPFTFGGGTKVEIK", "notes": "therapeutic antibody targeting IL-23"}}, "key": {"[1]": {"target": "T1, human IL-19 / human IL-20R beta Fc-fusion protein (Homo sapiens, UniProt Q9UHD0)", "T1 sequence (Q9UHD0 25-177)": "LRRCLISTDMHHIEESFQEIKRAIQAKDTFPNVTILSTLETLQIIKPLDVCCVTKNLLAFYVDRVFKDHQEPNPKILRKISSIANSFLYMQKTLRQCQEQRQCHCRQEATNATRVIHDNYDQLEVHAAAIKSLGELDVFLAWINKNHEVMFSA", "test": "BLI in vitro neutralization: IL-19 captured by antibody, then incubated with IL-20R beta Fc", "details": "block of IL-19 binding to soluble receptor", "source_text": "Alternatively, a biophysical assay such as bio-layer interferometry (BLI) may be used for assessing neutralization of IL-19 by antibodies of the present invention. Binding between a ligand immobilized on the biosensor tip surface and an analyte in solution produces an increase in optical thickness at the biosensor tip, which results in a wavelength shift (expressed in nm). According to such assay, the IL-19 receptor (i.e., […]) is expressed in a membrane-free manner (such as with an Fc-fusion e.g. IL20Rbeta Fc chimera protein from R&D Systems catalog 1788-IR-050). […] The immobilized antibodies are then incubated with recombinant human IL-19 protein diluted to 100 nM using HBS-EP+ running buffer (GE Healthcare, 10 mM Hepes pH7.4+150 mM NaCl+3 mM EDTA+0.05% surfactant P20) for 240-300 secs. The human IL-19, after binding to the anti-IL-19 antibody, is assessed by incubation with human IL-20R beta Fc-fusion protein for 240-300 secs. The ability of the antibody to block or neutralize binding of the IL-19 ligand to the soluble receptor is observed as a minimal (<0.025 nm) increase in the wavelength during this step of the assay."}, "[2]": {"tested_on": "Ps0 patients", "test": "Ps0 study in anti-IL-23 treatment groups: serum IL-19 and PASI", "format": "in vivo, human", "source_text": "According to an exemplified embodiment, a sandwich ELISA assay for the sensitive detection of IL-19 is provided herein. According to an exemplified embodiment, a first IL-19 antibody (selected from Table 1, 2 or 3) is utilized as an IL-19 capture antibody and a second IL-19 antibody (selected from Table 1, 2 or 3) is utilized as an IL-19 reporter antibody. […] According to some embodiments, one milligram of the first IL-19 antibody (the capture antibody) is biotinylated using Pierce biotinylation kit (Cat #) and one milligram of the second IL-19 antibody (the reporter antibody) is labeled with ruthenium using MesoScale Discovery (MSD) kit for electrochemiluminescent (ECL) detection. According to such embodiment, labeled antibodies are evaluated using MALDI-TOF to ensure suitable labeling, and then diluted in 50% glycerol and stored at −20° C. prior to use.\nStreptavidin-coated 96-well MSD plates are washed three times with TBST (Tris buffered saline containing 10 mmol/L Tris pH 7.40, 150 mmol/L NaCl with 1 mL Tween 20/L) and then blocked with TBS-T plus 1% BSA for 1 hour at room temperature. Plates are again washed and wells are then incubated with biotinylated IL-19 capture antibody (1 mg/L) for 1 hour. Thereafter, plates are again washed prior to patient sample testing.\nDuring patient sample testing, a standard curve is generated using 50 μL of recombinant human IL-19 control standard (serially diluted IL-19 recombinant protein ranging from 100-0.0001 ng/L, and including a zero blank, in assay buffer of 50 mmol/L HEPES, pH 7.40, 150 mmol/L NaCl, 10 mL/L Triton X-100, 5 mmol/L EDTA, and 5 mmol/L EGTA). […] Patient samples (which, according to the present invention, may include blood, serum or plasma) are diluted 1:4 in assay buffer and added to respective wells. The plate is incubated overnight at 4° C. Following incubation, wells are aspirated and washed 3 times with TBST. Thereafter, 50 μL of ruthenium-labeled IL-19 detection antibody (0.5 mg/L) is added to the wells for a 1-hour incubation at room temperature. Following incubation, wells are aspirated and washed 3 times with TBST. Thereafter, 150 μl of 2×MSD read buffer is added. Ruthenium electrochemiluminescence in the wells is detected using a MSD Sector 6000 plate reader. Data is analyzed and IL-19 MSD immunoassay calibration curve fitting is performed using MesoScale Discovery software. SAS® software version 9.4 (PROC MIXED) is used for assessing treatment effects on IL-19 levels using a mixed effects model with an unstructured covariance matrix and log10 transformed IL-19 concentrations (SAS. Version 9.4 for UNIX; SAS Institute Inc.: Cary, N.C., 2016). Statistical analysis is generated with the ggplot and pROC packages using R version 3.3.3 statistical computing environment (www.R-project.org, Vienna, Austria, 2017).\nA study of IL-19 levels, in serum of Ps0 patients treated with a therapeutic antibody targeting IL-23, mirikizumab, is performed. […] Administration of each treatment group, as a single subcutaneous dose, occurs at day 0. […] IL-19 levels are also assessed for prognostic value with PASI improvement between visits 2 and 12. Serum IL-19 concentration levels are presented in Table 14; a comparative of serum levels at week 8 is presented in Table 15; and prognostic values at week 8 showing correlations of IL-19 serum levels and PASI in psoriasis patients (21 ng/L, indicates the upper limit of the normal range of IL-19 in healthy subjects) are presented in Table 16."}}, "data": [{"molecule": "B1", "values": [{"measurement": "Neutralization", "setting": "[1]", "value": "No"}]}, {"molecule": "B2", "values": [{"measurement": "IL-19 (geometric mean) serum levels", "setting": "[2]; 5 mg single subcutaneous dose, Day 1 (baseline)", "value": 16.2, "unit": "pg/mL"}, {"measurement": "IL-19 (geometric mean) serum levels", "setting": "[2]; 5 mg single subcutaneous dose, Day 15", "value": 13.9, "unit": "pg/mL"}, {"measurement": "IL-19 (geometric mean) serum levels", "setting": "[2]; 5 mg single subcutaneous dose, Day 29", "value": 10.4, "unit": "pg/mL"}, {"measurement": "IL-19 (geometric mean) serum levels", "setting": "[2]; 5 mg single subcutaneous dose, Day 57", "value": 13.2, "unit": "pg/mL"}, {"measurement": "IL-19 (geometric mean) serum levels", "setting": "[2]; 5 mg single subcutaneous dose, Day 71", "value": 14.5, "unit": "pg/mL"}, {"measurement": "IL-19 (geometric mean) serum levels", "setting": "[2]; 20 mg single subcutaneous dose, Day 1 (baseline)", "value": 37.2, "unit": "pg/mL"}, {"measurement": "IL-19 (geometric mean) serum levels", "setting": "[2]; 20 mg single subcutaneous dose, Day 15", "value": 27.2, "unit": "pg/mL"}, {"measurement": "IL-19 (geometric mean) serum levels", "setting": "[2]; 20 mg single subcutaneous dose, Day 29", "value": 25.4, "unit": "pg/mL"}, {"measurement": "IL-19 (geometric mean) serum levels", "setting": "[2]; 20 mg single subcutaneous dose, Day 57", "value": 33.5, "unit": "pg/mL"}, {"measurement": "IL-19 (geometric mean) serum levels", "setting": "[2]; 20 mg single subcutaneous dose, Day 71", "value": 28.4, "unit": "pg/mL"}, {"measurement": "IL-19 (geometric mean) serum levels", "setting": "[2]; 60 mg single subcutaneous dose, Day 1 (baseline)", "value": 49.8, "unit": "pg/mL"}, {"measurement": "IL-19 (geometric mean) serum levels", "setting": "[2]; 60 mg single subcutaneous dose, Day 15", "value": 9.0, "unit": "pg/mL"}, {"measurement": "IL-19 (geometric mean) serum levels", "setting": "[2]; 60 mg single subcutaneous dose, Day 29", "value": 10.8, "unit": "pg/mL"}, {"measurement": "IL-19 (geometric mean) serum levels", "setting": "[2]; 60 mg single subcutaneous dose, Day 57", "value": 11.9, "unit": "pg/mL"}, {"measurement": "IL-19 (geometric mean) serum levels", "setting": "[2]; 60 mg single subcutaneous dose, Day 71", "value": 10.9, "unit": "pg/mL"}, {"measurement": "IL-19 (geometric mean) serum levels", "setting": "[2]; 120 mg single subcutaneous dose, Day 1 (baseline)", "value": 52.4, "unit": "pg/mL"}, {"measurement": "IL-19 (geometric mean) serum levels", "setting": "[2]; 120 mg single subcutaneous dose, Day 15", "value": 26.6, "unit": "pg/mL"}, {"measurement": "IL-19 (geometric mean) serum levels", "setting": "[2]; 120 mg single subcutaneous dose, Day 29", "value": 25.2, "unit": "pg/mL"}, {"measurement": "IL-19 (geometric mean) serum levels", "setting": "[2]; 120 mg single subcutaneous dose, Day 57", "value": 22.2, "unit": "pg/mL"}, {"measurement": "IL-19 (geometric mean) serum levels", "setting": "[2]; 120 mg single subcutaneous dose, Day 71", "value": 18.2, "unit": "pg/mL"}, {"measurement": "IL-19 (geometric mean) serum levels", "setting": "[2]; 200 mg single subcutaneous dose, Day 1 (baseline)", "value": 69.6, "unit": "pg/mL"}, {"measurement": "IL-19 (geometric mean) serum levels", "setting": "[2]; 200 mg single subcutaneous dose, Day 15", "value": 36.0, "unit": "pg/mL"}, {"measurement": "IL-19 (geometric mean) serum levels", "setting": "[2]; 200 mg single subcutaneous dose, Day 29", "value": 23.3, "unit": "pg/mL"}, {"measurement": "IL-19 (geometric mean) serum levels", "setting": "[2]; 200 mg single subcutaneous dose, Day 57", "value": 21.9, "unit": "pg/mL"}, {"measurement": "IL-19 (geometric mean) serum levels", "setting": "[2]; 200 mg single subcutaneous dose, Day 71", "value": 22.5, "unit": "pg/mL"}, {"measurement": "IL-19 (geometric mean) serum levels", "setting": "[2]; 300 mg, Week 0 (Baseline)", "value": 106.5, "unit": "pg/mL"}, {"measurement": "IL-19 (geometric mean) serum levels", "setting": "[2]; 300 mg, Week 8 (End of induction)", "value": 18.2, "unit": "pg/mL"}, {"measurement": "% of patients with serum IL-19 concentration ≤ 21 pg/mL", "setting": "[2]; 300 mg, week 8", "value": "58.3% (28/48)"}, {"measurement": "% patients with serum IL-19 concentration ≤ 21 pg/mL achieving at least PASI 75", "setting": "[2]; 300 mg, week 8", "value": "71.4% (20/28)"}, {"measurement": "% patients with serum IL-19 concentration ≤ 21 pg/mL not achieving at least PASI 75", "setting": "[2]; 300 mg, week 8", "value": "28.6% (8/28)"}, {"measurement": "IL-19 (geometric mean) serum levels", "setting": "[2]; 350 mg single subcutaneous dose, Day 1 (baseline)", "value": 58.4, "unit": "pg/mL"}, {"measurement": "IL-19 (geometric mean) serum levels", "setting": "[2]; 350 mg single subcutaneous dose, Day 15", "value": 35.2, "unit": "pg/mL"}, {"measurement": "IL-19 (geometric mean) serum levels", "setting": "[2]; 350 mg single subcutaneous dose, Day 29", "value": 22.4, "unit": "pg/mL"}, {"measurement": "IL-19 (geometric mean) serum levels", "setting": "[2]; 350 mg single subcutaneous dose, Day 57", "value": "23.7. pg/ml"}, {"measurement": "IL-19 (geometric mean) serum levels", "setting": "[2]; 350 mg single subcutaneous dose, Day 71", "value": 18.0, "unit": "pg/mL"}, {"measurement": "IL-19 (geometric mean) serum levels", "setting": "[2]; 600 mg single subcutaneous dose, Day 1 (baseline)", "value": 57.3, "unit": "pg/mL"}, {"measurement": "IL-19 (geometric mean) serum levels", "setting": "[2]; 600 mg single subcutaneous dose, Day 15", "value": 30.1, "unit": "pg/mL"}, {"measurement": "IL-19 (geometric mean) serum levels", "setting": "[2]; 600 mg single subcutaneous dose, Day 29", "value": 21.8, "unit": "pg/mL"}, {"measurement": "IL-19 (geometric mean) serum levels", "setting": "[2]; 600 mg single subcutaneous dose, Day 57", "value": "14.4. pg/ml"}, {"measurement": "IL-19 (geometric mean) serum levels", "setting": "[2]; 600 mg single subcutaneous dose, Day 71", "value": 15.8, "unit": "pg/mL"}]}]}
